The values below come from patent US8815802 (Novo Nordisk, dated 2014).

Numbered stars: 1 amine (or outer) side, 2 acyl side, 3 side chain; on linkers, the order of the positions; unused ones are H or OH. Square brackets hold non-standard residues; d marks the D form. Side chains are listed from the residue outwards. Ends that are not written are not given here. * marks the point of attachment. X1 = 4‑(16-(1H-tetrazol-5-yl)hexadecanoylsulfamoyl)butanoyl, O=C(CCCCCCCCCCCCCCCc1nn[nH]n1)NS(=O)(=O)CCCC(=O)*; C20 diacid = O=C(O)CCCCCCCCCCCCCCCCCCC(=O)*; C18 diacid = O=C(O)CCCCCCCCCCCCCCCCC(=O)*; C16 diacid = O=C(O)CCCCCCCCCCCCCCC(=O)*; γGlu = O=C(O)[C@H](CCC(=O)[*:2])N[*:1]; Desaminohistidyl = O=C(CCc1c[nH]cn1)*; Trx = NC[C@H]1CC[C@H](C(=O)O)CC1; NMeA = CN[C@@H](C)C(=O)O; AEEA = NCCOCCOCC(=O)O

The target of test [1] is T1, human GLP-1 receptor (human, UniProt P43220 24-463).
T1 construct: whole, on cells; Used as purified plasma membranes of the transfected hamster cell line, not as intact cells; also called hGLP-1
The experiment in a line: SPA, displacement of 125I-GLP-1(7-36)NH2 from hGLP-1R membranes, 2.0% HSA. The protocol:
(§1) 25 ul (micro liter) of test compounds were added to Optiplate. HSA ("high albumin" experiment containing 2% HSA), or buffer ("low albumin" experiment containing 0.005% HSA), was added (50 ul). 5-10 ug protein/sample was added (50 ul) corresponding to 0.1-0.2 mg protein/ml (to be preferably optimised for each membrane preparation). SPA-particles (Wheatgerm agglutinin SPA beads, Perkin Elmer, #RPNQ0001) were added in an amount of 0.5 mg/well (50 ul). […] The plates were sealed with PlateSealer and incubated for 120 minutes at 30° C. while shaking. The plates were centrifuged (1500 rpm, 10 min) and counted in Topcounter.
In general terms: In a radioligand displacement assay an active substance lowers the binding of a labelled ligand.

Test [2] concerns the target T1, human GLP-1 receptor. Description: SPA, displacement of 125I-GLP-1(7-36)NH2 from hGLP-1R membranes, 0.005% HSA. The protocol: as §1

B1: N^ε36-[2-[2-[2-(17-carboxyheptadecanoylamino)ethoxy]ethoxy]acetyl]-[Aib^8,Glu^30,His^31,Gln^34,Lys^36]-GLP-1-(7-37)-peptidyl-Glu amide (peptide)
peptide: HXEGTFTSDVSSYLEGQAAKEFIEHLVQGKGE
HELM: PEPTIDE1{H.[Aib].E.G.T.F.T.S.D.V.S.S.Y.L.E.G.Q.A.A.K.E.F.I.E.H.L.V.Q.G.K.G.E.[am]}|PEPTIDE2{[O=C(O)CCCCCCCCCCCCCCCCC(=O)[*:2]].[O=C(COCCOCCN[*:1])[*:2]]}$PEPTIDE1,PEPTIDE2,30:R3-2:R2$$$V2.0; N-terminus assumed
SMILES: CC[C@H](C)[C@H](NC(=O)[C@H](Cc1ccccc1)NC(=O)[C@H](CCC(=O)O)NC(=O)[C@H](CCCCN)NC(=O)[C@H](C)NC(=O)[C@H](C)NC(=O)[C@H](CCC(N)=O)NC(=O)CNC(=O)[C@H](CCC(=O)O)NC(=O)[C@H](CC(C)C)NC(=O)[C@H](Cc1ccc(O)cc1)NC(=O)[C@H](CO)NC(=O)[C@H](CO)NC(=O)[C@@H](NC(=O)[C@H](CC(=O)O)NC(=O)[C@H](CO)NC(=O)[C@@H](NC(=O)[C@H](Cc1ccccc1)NC(=O)[C@@H](NC(=O)CNC(=O)[C@H](CCC(=O)O)NC(=O)C(C)(C)NC(=O)[C@@H](N)Cc1c[nH]cn1)[C@@H](C)O)[C@@H](C)O)C(C)C)C(=O)N[C@@H](CCC(=O)O)C(=O)N[C@@H](Cc1c[nH]cn1)C(=O)N[C@@H](CC(C)C)C(=O)N[C@H](C(=O)N[C@@H](CCC(N)=O)C(=O)NCC(=O)N[C@@H](CCCCNC(=O)COCCOCCNC(=O)CCCCCCCCCCCCCCCCC(=O)O)C(=O)NCC(=O)N[C@@H](CCC(=O)O)C(N)=O)C(C)C
Regarding B1, the concentration for half-maximal inhibition (IC50) was at most 1000 nM in the test with human GLP-1 receptor [1] and below 600 nM with human GLP-1 receptor [2].

B2: [Aib^8,Glu^30,His^31,Gln^34,Lys^36] GLP-1(7-37)yl-Glu^38-peptide amide (peptide)
peptide: HXEGTFTSDVSSYLEGQAAKEFIEHLVQGKGE
HELM: PEPTIDE1{H.[Aib].E.G.T.F.T.S.D.V.S.S.Y.L.E.G.Q.A.A.K.E.F.I.E.H.L.V.Q.G.K.G.E.[am]}$$$$V2.0; N-terminus assumed
SMILES: CC[C@H](C)[C@H](NC(=O)[C@H](Cc1ccccc1)NC(=O)[C@H](CCC(=O)O)NC(=O)[C@H](CCCCN)NC(=O)[C@H](C)NC(=O)[C@H](C)NC(=O)[C@H](CCC(N)=O)NC(=O)CNC(=O)[C@H](CCC(=O)O)NC(=O)[C@H](CC(C)C)NC(=O)[C@H](Cc1ccc(O)cc1)NC(=O)[C@H](CO)NC(=O)[C@H](CO)NC(=O)[C@@H](NC(=O)[C@H](CC(=O)O)NC(=O)[C@H](CO)NC(=O)[C@@H](NC(=O)[C@H](Cc1ccccc1)NC(=O)[C@@H](NC(=O)CNC(=O)[C@H](CCC(=O)O)NC(=O)C(C)(C)NC(=O)[C@@H](N)Cc1c[nH]cn1)[C@@H](C)O)[C@@H](C)O)C(C)C)C(=O)N[C@@H](CCC(=O)O)C(=O)N[C@@H](Cc1c[nH]cn1)C(=O)N[C@@H](CC(C)C)C(=O)N[C@H](C(=O)N[C@@H](CCC(N)=O)C(=O)NCC(=O)N[C@@H](CCCCN)C(=O)NCC(=O)N[C@@H](CCC(=O)O)C(N)=O)C(C)C
notes: unacylated analogue; also called (8Aib, 30E, 31H, 34Q, 36K, 38E)
As to B2, the results for the 50% inhibitory concentration (IC50) in the test with human GLP-1 receptor [1] and with human GLP-1 receptor [2] were at most 1000 nM and below 600 nM, respectively.

B3: N^α([Aib^8,His^31,Gln^34]-GLP-1-(7-37)-peptidyl)-Lysine (peptide)
peptide: HXEGTFTSDVSSYLEGQAAKEFIAHLVQGRGK
modifications: Aib8 (GLP-1(7-37) numbering)
notes: unacylated analogue; also called (8Aib, 31H, 34Q, 38K)
For B3, the values for the IC50 in the test with human GLP-1 receptor [1] and with human GLP-1 receptor [2] were at most 1000 nM and below 600 nM, respectively.

B4: N^ε26-[2-[2-[2-[[2-[2-[2-[[(4S)-4-carboxy-4-(15-carboxypentadecanoylamino)butanoyl]amino]ethoxy]ethoxy]acetyl]amino]ethoxy]ethoxy]acetyl][His^31,Gln^34]-GLP-1-( … (peptide)
peptide: HAEGTFTSDVSSYLEGQAAK([AEEA-AEEA-γGlu-C16 diacid])EFIAHLVQGRG
Turning to B4, the concentration for half-maximal inhibition (IC50) is at most 1000 nM with human GLP-1 receptor [1] and below 600 nM with human GLP-1 receptor [2].

B5: N^ε26-4-[16-(1H-tetrazol-5-yl)hexadecanoylsulfamoyl]butanoyl-[His^31,Gln^34]-GLP-1-(7-37)-peptide (peptide)
peptide: HAEGTFTSDVSSYLEGQAAK(X1)EFIAHLVQGRG
As for B5, the IC50 with human GLP-1 receptor [1] is at most 1000 nM; with human GLP-1 receptor [2], below 600 nM.

B6: [Imp^7,Glu^22,Arg^26,His^31,Gln^34,Lys^37]-GLP-1-(7-37)-peptide (peptide)
peptide: [Desaminohistidyl]AEGTFTSDVSSYLEEQAAREFIAHLVQGRK
notes: unacylated analogue; also called Chem. 40
Regarding B6, the half-maximal inhibitory concentration (IC50) with human GLP-1 receptor [1] was at most 1000 nM; with human GLP-1 receptor [2] it was below 600 nM.

B7: N^8-methyl, … (peptide)
peptide: H[NMeA]EGTFTSDVSSYLEGQAAK([AEEA-AEEA-γGlu-C18 diacid])EFIAHLVQGRG
As to B7, the values for the IC50 with human GLP-1 receptor [1] and with human GLP-1 receptor [2] were at most 1000 nM and below 600 nM, respectively.

B8: N^ε26[2-(2-{2-[(S)-4-Carboxy-4-(2-{2-[2-(17-carboxy-heptadecanoylamino)ethoxy]ethoxy}acetylamino)butyryl amino]ethoxy}ethoxy)acetyl] … (peptide)
peptide: HXEGTFTSDVSSYLEGQAAKEFIAHLVQGRG
modifications: Aib8; Lys26 N-epsilon-acylated (side chain as in name); GLP-1(7-37) numbering
For B8, the values for the IC50 with human GLP-1 receptor [1] and in the test with human GLP-1 receptor [2] were at most 1000 nM and below 600 nM, respectively.

B9: N^ε26-[2-(2-{2-[2-(2-{2-[(S)-4-Carboxy-4-(17-carboxyheptadecanoylamino)butyrylamino]ethoxy}ethoxy)acetylamino]ethoxy}ethoxy)acetyl][Aib^8,His^31,Gln^34]GLP-1(7- … (peptide)
peptide: HXEGTFTSDVSSYLEGQAAKEFIAHLVQGRG
modifications: Aib8; Lys26 N-epsilon-acylated (side chain as in name); GLP-1(7-37) numbering
Take B9: the results for the concentration for half-maximal inhibition (IC50) with human GLP-1 receptor [1] and with human GLP-1 receptor [2] were at most 1000 nM and below 600 nM, respectively.

B10: N^ε26-2,3-bis[[2-[2-[2-[[2-[2-[2-[[(4S)-4-carboxy-4-(13-carboxytridecanoylamino)butanoyl]amino]ethoxy]ethoxy]acetyl]amino]ethoxy]ethoxy]acetyl]amino]propanoyl-[ … (peptide)
peptide: HXEGTFTSDVSSYLEGQAAKEFIAHLVQGRG
modifications: not fully specified; Aib8; Lys26 N-epsilon-acylated (branched side chain as in name); GLP-1(7-37) numbering
Consider B10, for which the half-maximal inhibitory concentration (IC50) was at most 1000 nM with human GLP-1 receptor [1] and below 600 nM with human GLP-1 receptor [2].

B11: N^ε37-[2-[2-[2-[[2-[2-[2-[[(4R)-4-carboxy-4-[[4-[(19-carboxynonadecanoylamino)methyl]cyclohexanecarbonyl]amino]butanoyl]amino]ethoxy]ethoxy]acetyl]amino]ethoxy] … (peptide)
peptide: [Desaminohistidyl]AEGTFTSDVSSYLEEQAAREFIAHLVQGRK([AEEA-AEEA-γ‑D‑Glu-Trx-C20 diacid])
Consider B11, for which the half-inhibitory concentration (IC50) was at most 1000 nM in the test with human GLP-1 receptor [1] and below 600 nM in the test with human GLP-1 receptor [2].

A word on the IC50: it is the midpoint of a concentration-inhibition curve. Lower therefore signals greater potency in that assay.
